Source: patent US20090149389A1 (PURDUE RESEARCH FOUNDATION, published 2009)

How the values were obtained:
Test in all cases: cell-based or functional assay
[1] = biological target: CaMKI (h) (human (h), UniProt Q14012 1-370, limits assumed)
[2] = biological target: CDKI/cyclinB (h) (human (h), UniProt P06493 1-297)
[3] = biological target: CK2 (h) (human (h), UniProt P68400 1-391)
[4] = biological target: T1, DYRK2 (h) (human (h), UniProt Q92630 1-601, limits assumed)
T1 sequence (looked up): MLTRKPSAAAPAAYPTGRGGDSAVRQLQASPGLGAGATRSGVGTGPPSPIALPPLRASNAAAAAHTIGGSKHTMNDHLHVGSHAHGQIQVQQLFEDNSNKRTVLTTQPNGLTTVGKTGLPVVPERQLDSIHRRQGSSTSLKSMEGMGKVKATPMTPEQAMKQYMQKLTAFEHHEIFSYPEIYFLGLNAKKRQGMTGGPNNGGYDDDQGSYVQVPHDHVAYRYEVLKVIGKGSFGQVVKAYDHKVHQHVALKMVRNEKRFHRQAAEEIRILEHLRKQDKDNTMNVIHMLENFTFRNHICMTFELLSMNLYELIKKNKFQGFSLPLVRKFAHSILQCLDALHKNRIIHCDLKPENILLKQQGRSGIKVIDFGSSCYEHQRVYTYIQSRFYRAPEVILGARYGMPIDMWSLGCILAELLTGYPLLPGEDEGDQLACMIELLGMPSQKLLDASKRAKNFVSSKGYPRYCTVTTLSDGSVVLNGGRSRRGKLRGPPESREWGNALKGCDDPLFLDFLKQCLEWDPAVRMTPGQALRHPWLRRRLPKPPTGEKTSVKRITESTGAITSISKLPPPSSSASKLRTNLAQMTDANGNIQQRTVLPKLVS

[5] = biological target: EGFR (h) (human (h), UniProt P00533 696-1210, limits assumed)
[6] = biological target: FGFR1 (h) (human (h), UniProt P11362 456-765, limits assumed)
[7] = biological target: GSK3β (h) (human (h), UniProt P49841 1-420)
GSK3β (h), sequence (P49841 whole entry): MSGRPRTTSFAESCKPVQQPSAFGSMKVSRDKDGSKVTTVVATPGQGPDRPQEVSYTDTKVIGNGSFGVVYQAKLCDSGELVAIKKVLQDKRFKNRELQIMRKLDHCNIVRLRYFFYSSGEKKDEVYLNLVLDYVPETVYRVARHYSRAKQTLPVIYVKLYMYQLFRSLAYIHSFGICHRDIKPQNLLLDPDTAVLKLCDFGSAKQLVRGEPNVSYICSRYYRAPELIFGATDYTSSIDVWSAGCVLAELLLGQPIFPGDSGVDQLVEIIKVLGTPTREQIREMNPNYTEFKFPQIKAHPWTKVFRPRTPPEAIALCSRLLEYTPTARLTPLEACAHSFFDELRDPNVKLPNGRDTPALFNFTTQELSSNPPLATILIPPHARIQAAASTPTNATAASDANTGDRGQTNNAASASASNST

[8] = biological target: JNK1α1 (h) (human (h), UniProt P45983-2 1-384)
JNK1α1 (h), sequence (P45983 other isoform, or with tags, fused parts or gaps limits assumed): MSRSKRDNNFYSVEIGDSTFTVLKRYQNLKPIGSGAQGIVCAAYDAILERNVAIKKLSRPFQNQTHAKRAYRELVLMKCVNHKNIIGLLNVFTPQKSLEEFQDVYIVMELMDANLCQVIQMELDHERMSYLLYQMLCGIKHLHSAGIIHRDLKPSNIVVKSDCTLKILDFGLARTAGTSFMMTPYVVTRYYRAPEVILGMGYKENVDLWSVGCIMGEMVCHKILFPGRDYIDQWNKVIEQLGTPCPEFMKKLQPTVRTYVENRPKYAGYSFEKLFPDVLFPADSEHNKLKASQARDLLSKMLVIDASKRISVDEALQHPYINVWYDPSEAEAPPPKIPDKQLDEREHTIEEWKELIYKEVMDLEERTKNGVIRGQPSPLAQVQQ

[9] = biological target: Lck (h) (human (h), UniProt P06239 1-509)
[10] = biological target: L1MK1 (h) (human (h), UniProt P53667 285-638, limits assumed)
L1MK1 (h), sequence (P53667 285-638 limits assumed): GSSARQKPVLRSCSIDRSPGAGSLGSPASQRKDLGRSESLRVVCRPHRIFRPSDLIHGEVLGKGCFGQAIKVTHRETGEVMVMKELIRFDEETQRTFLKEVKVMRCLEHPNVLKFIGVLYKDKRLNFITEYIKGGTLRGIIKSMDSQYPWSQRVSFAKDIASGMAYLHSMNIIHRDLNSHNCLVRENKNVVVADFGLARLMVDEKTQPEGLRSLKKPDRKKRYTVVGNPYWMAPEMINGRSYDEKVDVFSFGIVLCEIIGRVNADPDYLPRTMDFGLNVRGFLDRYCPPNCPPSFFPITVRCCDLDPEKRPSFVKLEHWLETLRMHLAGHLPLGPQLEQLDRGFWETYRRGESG

[11] = biological target: MAPKI (h) (human (h), UniProt P28482 1-360, limits assumed)
MAPKI (h), sequence (P28482 whole entry): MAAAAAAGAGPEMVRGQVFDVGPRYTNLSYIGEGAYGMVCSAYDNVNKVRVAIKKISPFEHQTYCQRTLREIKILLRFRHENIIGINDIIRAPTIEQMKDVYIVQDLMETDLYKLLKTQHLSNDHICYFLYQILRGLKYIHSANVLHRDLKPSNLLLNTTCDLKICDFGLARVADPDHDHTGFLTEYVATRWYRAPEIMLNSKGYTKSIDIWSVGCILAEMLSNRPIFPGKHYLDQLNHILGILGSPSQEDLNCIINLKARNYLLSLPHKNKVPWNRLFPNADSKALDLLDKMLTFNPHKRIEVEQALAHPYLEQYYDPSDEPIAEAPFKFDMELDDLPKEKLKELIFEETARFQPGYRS

[12] = biological target: MAPKAP-K2 (h) (human (h), UniProt P49137 46-400, limits assumed)
MAPKAP-K2 (h), sequence (P49137 46-400 limits assumed): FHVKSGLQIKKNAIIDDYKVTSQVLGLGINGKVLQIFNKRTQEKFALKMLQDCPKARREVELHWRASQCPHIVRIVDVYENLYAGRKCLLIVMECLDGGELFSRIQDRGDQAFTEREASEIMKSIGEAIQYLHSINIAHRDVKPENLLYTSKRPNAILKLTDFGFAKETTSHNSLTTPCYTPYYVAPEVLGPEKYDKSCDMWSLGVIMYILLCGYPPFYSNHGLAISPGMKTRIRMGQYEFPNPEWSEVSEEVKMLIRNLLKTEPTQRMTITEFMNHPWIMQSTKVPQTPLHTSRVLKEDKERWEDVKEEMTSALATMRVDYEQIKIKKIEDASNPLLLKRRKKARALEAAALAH

[13] = biological target: MEKI (h) (human (h), UniProt Q02750 1-393)
[14] = biological target: MLCK (h) (human (h))
[15] = biological target: MSK2 (h) (human (h), UniProt O75676 1-772, limits assumed)
[16] = biological target: PDGFRβ (h) (human (h), UniProt P09619 558-1106, limits assumed)
PDGFRβ (h), sequence (P09619 558-1106 limits assumed): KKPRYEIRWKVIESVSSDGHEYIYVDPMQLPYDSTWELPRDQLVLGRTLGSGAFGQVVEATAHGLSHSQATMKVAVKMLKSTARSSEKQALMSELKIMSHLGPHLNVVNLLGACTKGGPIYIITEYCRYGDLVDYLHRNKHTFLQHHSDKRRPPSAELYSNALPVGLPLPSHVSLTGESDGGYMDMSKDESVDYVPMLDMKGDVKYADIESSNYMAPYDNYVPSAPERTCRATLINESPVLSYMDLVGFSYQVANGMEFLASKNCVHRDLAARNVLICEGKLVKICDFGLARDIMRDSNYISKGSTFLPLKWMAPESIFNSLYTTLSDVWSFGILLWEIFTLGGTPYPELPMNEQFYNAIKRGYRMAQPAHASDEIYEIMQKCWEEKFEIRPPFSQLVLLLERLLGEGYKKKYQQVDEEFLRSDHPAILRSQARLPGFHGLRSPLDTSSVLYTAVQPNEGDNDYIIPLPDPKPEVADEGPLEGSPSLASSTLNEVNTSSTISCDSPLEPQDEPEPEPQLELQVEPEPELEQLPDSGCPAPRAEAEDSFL

[17] = biological target: T2, PhKγ2 (h) (human (h), UniProt P15735 1-406)
T2 sequence (looked up): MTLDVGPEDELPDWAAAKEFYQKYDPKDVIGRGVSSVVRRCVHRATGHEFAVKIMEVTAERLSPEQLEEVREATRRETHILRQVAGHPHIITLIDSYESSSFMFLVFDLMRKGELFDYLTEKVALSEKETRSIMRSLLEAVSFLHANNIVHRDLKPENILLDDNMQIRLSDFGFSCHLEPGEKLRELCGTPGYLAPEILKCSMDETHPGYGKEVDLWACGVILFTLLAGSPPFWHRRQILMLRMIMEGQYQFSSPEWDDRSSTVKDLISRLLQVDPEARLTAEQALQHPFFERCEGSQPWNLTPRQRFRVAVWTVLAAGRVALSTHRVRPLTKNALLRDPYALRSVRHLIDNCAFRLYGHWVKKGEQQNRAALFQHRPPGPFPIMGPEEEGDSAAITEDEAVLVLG

[18] = biological target: PKCδ (h) (human (h), UniProt Q05655 1-676)
[19] = biological target: T3, Ret (h) (human (h), UniProt P07949 658-1114, limits assumed)
T3 sequence (looked up): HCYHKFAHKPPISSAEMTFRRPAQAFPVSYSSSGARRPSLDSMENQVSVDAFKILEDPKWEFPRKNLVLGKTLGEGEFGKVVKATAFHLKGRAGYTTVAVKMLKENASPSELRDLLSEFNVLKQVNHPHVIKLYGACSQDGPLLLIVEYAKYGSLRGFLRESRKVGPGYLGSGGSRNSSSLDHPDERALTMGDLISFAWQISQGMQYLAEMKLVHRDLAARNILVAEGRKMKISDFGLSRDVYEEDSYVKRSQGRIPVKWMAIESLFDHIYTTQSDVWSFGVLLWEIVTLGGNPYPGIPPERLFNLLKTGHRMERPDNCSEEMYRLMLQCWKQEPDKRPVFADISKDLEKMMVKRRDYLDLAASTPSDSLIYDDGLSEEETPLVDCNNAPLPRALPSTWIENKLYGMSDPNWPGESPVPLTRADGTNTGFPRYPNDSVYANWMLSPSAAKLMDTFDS

[20] = biological target: Rsk2 (h) (human (h), UniProt P51812 1-740)
Rsk2 (h), sequence (P51812 whole entry): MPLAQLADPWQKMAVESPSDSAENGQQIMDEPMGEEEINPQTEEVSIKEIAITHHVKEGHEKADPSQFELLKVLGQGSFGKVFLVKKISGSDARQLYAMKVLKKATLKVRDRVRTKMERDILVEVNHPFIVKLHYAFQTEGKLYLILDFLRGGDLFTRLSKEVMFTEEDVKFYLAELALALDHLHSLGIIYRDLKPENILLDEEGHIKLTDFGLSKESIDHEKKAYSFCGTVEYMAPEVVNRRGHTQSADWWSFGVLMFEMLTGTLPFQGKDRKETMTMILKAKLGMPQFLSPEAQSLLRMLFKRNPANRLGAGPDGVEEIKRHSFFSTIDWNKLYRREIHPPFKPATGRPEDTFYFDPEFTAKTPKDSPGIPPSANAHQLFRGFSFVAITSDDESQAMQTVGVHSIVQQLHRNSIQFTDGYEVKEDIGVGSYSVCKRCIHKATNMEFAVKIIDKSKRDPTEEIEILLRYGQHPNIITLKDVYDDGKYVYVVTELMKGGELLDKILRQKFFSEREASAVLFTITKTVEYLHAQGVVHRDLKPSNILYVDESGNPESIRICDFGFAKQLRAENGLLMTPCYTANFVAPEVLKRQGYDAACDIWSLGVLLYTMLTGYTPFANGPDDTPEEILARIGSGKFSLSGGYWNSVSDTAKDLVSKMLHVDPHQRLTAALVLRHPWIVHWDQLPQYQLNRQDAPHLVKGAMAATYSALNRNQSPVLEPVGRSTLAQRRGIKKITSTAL

[21] = biological target: SAPK2 a (h) (human (h), UniProt Q16539 1-360)
SAPK2 a (h), sequence (Q16539 whole entry): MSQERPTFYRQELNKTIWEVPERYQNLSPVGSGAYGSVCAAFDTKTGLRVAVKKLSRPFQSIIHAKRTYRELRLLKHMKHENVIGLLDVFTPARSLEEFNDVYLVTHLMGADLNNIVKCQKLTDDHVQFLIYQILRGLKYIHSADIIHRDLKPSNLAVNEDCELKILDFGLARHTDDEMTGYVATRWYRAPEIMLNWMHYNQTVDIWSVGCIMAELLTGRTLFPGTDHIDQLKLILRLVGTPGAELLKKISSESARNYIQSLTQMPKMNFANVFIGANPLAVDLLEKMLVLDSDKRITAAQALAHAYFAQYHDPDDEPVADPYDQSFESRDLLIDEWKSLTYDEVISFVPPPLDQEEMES

[22] = biological target: TrkA (h) (human (h), UniProt P04629 441-796, limits assumed)
TrkA (h), sequence (P04629 441-796 limits assumed): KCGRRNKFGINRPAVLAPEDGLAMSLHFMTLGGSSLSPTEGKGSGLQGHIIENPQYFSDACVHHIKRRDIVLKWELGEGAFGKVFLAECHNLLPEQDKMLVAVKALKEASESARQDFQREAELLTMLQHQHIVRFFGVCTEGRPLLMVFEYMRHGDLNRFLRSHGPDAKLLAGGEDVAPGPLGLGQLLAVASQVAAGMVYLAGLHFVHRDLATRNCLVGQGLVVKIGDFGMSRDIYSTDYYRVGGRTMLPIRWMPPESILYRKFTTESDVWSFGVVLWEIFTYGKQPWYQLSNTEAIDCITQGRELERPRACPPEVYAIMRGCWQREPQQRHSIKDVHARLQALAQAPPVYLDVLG

CDKI/cyclinB (h), sequence (P06493 whole entry): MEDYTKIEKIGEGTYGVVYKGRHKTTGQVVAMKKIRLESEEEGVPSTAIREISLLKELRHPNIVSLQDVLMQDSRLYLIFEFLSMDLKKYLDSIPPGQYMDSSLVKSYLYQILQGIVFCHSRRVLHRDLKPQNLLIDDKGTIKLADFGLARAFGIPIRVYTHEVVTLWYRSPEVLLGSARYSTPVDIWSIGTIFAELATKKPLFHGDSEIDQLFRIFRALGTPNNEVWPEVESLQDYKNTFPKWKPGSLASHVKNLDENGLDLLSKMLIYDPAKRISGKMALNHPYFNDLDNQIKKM
CaMKI (h), sequence (Q14012 whole entry): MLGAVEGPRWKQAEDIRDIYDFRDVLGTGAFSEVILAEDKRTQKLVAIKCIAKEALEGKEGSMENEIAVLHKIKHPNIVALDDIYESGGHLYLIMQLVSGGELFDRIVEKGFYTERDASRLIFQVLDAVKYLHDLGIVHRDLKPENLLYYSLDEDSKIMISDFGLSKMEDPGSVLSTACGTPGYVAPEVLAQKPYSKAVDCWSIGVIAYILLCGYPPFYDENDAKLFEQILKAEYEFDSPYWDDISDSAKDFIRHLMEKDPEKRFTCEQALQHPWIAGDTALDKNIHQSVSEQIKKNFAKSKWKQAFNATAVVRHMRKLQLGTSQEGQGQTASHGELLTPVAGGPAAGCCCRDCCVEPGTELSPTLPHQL
CK2 (h), sequence (P68400 whole entry): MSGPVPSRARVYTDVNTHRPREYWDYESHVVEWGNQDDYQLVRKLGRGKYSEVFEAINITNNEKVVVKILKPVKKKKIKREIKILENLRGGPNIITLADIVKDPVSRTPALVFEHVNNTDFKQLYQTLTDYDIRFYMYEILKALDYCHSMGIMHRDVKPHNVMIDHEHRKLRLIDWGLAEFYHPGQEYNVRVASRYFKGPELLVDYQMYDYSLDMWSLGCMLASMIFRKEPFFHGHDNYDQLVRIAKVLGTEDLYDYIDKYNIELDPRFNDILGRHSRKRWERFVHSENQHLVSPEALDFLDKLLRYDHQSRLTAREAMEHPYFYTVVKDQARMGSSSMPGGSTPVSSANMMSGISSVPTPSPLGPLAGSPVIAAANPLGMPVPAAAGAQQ

Question: How did the “Profile-1 @ = 100 µm (kinase profiler assay)” value (“Profile-1 @ = 100 µm” below) [1] turn out when KAFAKLAARLYRKALARQLGVAA was run?
Answer: The value was 0.

Question: And the “Profile-1 @ = 100 µm” value [2]?
Answer: The value was 55.

Question: What about the “Profile-1 @ = 100 µm” value [3] of the same binder?
Answer: Its value is 79.

Question: And the “Profile-1 @ = 100 µm” value [4]?
Answer: Its value is -10.

Question: And the “Profile-1 @ = 100 µm” value [5]?
Answer: Its value is 16.

Question: What about the “Profile-1 @ = 100 µm” value [6] of the same binder?
Answer: The value was 35.

Question: What about the “Profile-1 @ = 100 µm” value [7] of the same binder?
Answer: The value was 184.

Question: What about the “Profile-1 @ = 100 µm” value [8] of the same binder?
Answer: The value was 92.

Question: What about the “Profile-1 @ = 100 µm” value [9] of the same binder?
Answer: The value was 847.

Question: What about the “Profile-1 @ = 100 µm” value [10] of the same binder?
Answer: Its value is 93.

Question: What about the “Profile-1 @ = 100 µm” value [11] of the same binder?
Answer: Its value is 108.

Question: What about the “Profile-1 @ = 100 µm” value [12] of the same binder?
Answer: The value was 8.

Question: What about the “Profile-1 @ = 100 µm” value [13] of the same binder?
Answer: Its value is 66.

Question: What about the “Profile-1 @ = 100 µm” value [14] of the same binder?
Answer: Its value is 2.

Question: What about the “Profile-1 @ = 100 µm” value [15] of the same binder?
Answer: The value was 30.

Question: What about the “Profile-1 @ = 100 µm” value [16] of the same binder?
Answer: The value was 66.

Question: What about the “Profile-1 @ = 100 µm” value [17] of the same binder?
Answer: Its value is 27.

Question: What about the “Profile-1 @ = 100 µm” value [18] of the same binder?
Answer: Its value is 24.

Question: What about the “Profile-1 @ = 100 µm” value [19] of the same binder?
Answer: Its value is 117.

Question: And the “Profile-1 @ = 100 µm” value [20]?
Answer: The value was 6.

Question: What about the “Profile-1 @ = 100 µm” value [21] of the same binder?
Answer: The value was 59.

Question: What about the “Profile-1 @ = 100 µm” value [22] of the same binder?
Answer: Its value is 16.
